{"source": "the DeepSol protein solubility set", "data": [{"assay": "soluble on expression in E. coli; label from the status in PepcDB or PDB records", "values": [{"sequence": "MKAPLVSIIIPVWNLWELTCACLDSIRAHTPGNAVEVIVVDNGSDDTTATALAPTGEGLFGARFRRIRLETNRGFAVACNLGAAKAQGTYLLLLNNDTVLSPGWLPPLLREFDDEPRTGAAGPLLVYPDSGRVQHCGIAFAPTLQTEHLYANFPATHPAVRARRTLQAITGAAMLLPTALFRQCGGFHEGYKNGCEDLELCCRIREQGLRLAVVPESLVAHHESRTPGRKEHDAANATLLNRRCSGCFGPDLHRHALRDGFAIALTPWLDTYLTLPPGREAALTREHITDFDPGRCWETLQGEPLWHGGYEMLCSILDEAGRHAESAGVRLLQAGFFPTLPGFRQLARSAALSGNDELARQAAEKMQHIGGILEDPEPLVTRARGLVRWARRAGEPAVEALYTGWLTDIGLSADDLEHHHHHH", "soluble on expression in E. coli": "soluble"}, {"sequence": "MKFVLAVHGTRGDVEPCAAVGVELRRRGHAVHMAVPPNLIEFVESAGLTGVAYGPDSDEQINTVAAFVRNLTRAQNPLNLARAVKELFVEGWAEMGTTLTTLADGADLVMTGQTYHGVAANVAEYYDIPAAALHHFPMQVNGQIAIPSIPTPATLVRATMKVSWRLYAYVSKDADRAQRRELGLPPAPAPAVRRLAERGAPEIQAYDPVFFPGLAAEWSDRRPFVGPLTMELHSEPNEELESWIAAGTPPIYFGFGSTPVQTPVQTLAMISDVCAQLGERALIYSPAANSTRIRHADHVKRVGLVNYSTILPKCRAVVHHGGAGTTAAGLRAGMPTLILWDVADQPIWAGAVQRLKVGSAKRFTNITRGSLLKELRSILAPECAARAREISTRMTRPTAAVTAAADLLEATARQTPGSTPSSSPGR", "soluble on expression in E. coli": "not soluble"}, {"sequence": "MGSDKIHHHHHHMTAPFSTQLKRCTTCLLPETHETLVLDSEGVCNICRAQEVKAEINWEERLVHLDKLVAEYRGNYRYDCLIPFSGGKDSTWTLYYLMNRYPGIKPLVVRFNHGFLRPNLRANCDRVFRKLGVDVHDFSPSWKVVQRLMLQSFLEKGDFCWHCHTGIFAYPMQVAIKEQVPLIFWGEPSAEYTAYYNYDQAEEVDEERFNRYVNLGISAEDMLVRLDGYLDERDVEPFRYPPLKELRQLGYRSVCLGSYIPWDVKMQVGKIREELGWKGDLVENVPEDFNYEKIECWMQGVRDYIKYIKRGYTRPTHLAAIDLRNNRISKEEAKAMITQFEGRRPPSLDLFLDYVGLDEEQFYTIAMGHQVSPWQFDPDSIKSGPKTPDFEDWLRGDGLDLVDAEDQLGRWADSCSSCSSSSSCSGG", "soluble on expression in E. coli": "not soluble"}, {"sequence": "MSPTGNYLNAITNRRTIYNLKPELPQGVGLDDVKRTVHVILKNTPTAFNSQVNRAVIIVGDTHKRIWDAVASAMPTAEAKKRPESCRDEAYGSVIFFTDEGPTEKLQRDFPALAAAFPTCAAHTTGAVQIQSWTALELLGLGANLQHYNDYVKSALPQDVPIAWTVQSQLVFGVPTALPEEKTFINNVINVYH", "soluble on expression in E. coli": "soluble"}, {"sequence": "MIVEPMTKPRKPTVQRCQSFFTNGANHFYCKKSTHDGGRTHNLLIRSQTRCHYATRATVCWKFSIINKYIPTLANITITTLRKLYKRFIDRESLFLIFFRKDEHIVQNIIN", "soluble on expression in E. coli": "soluble"}, {"sequence": "MARMKFLCDTKRCIECNGCVTACKNENDDALEWGIQRRRVVTLNDGEPGENSISVACMHCTDAPCMAVCPADCFVHTEDGIVLHNKDLCIGCGYCLFACPFGAPQFPKQAAFGERGKMDKCTFCAGGPETEPGSEEERRKYGANRIAEGKLPMCASLCSTKALLAGDAEKISDIFRQRVVERGAKGAGWTNGEDLAYDATRS", "soluble on expression in E. coli": "not soluble"}, {"sequence": "MAHHHHHHMDWVKVMNLIYASRDVDATTLAFNAAMSAVEKKGCLKSMLEVFEIMKKKNIKPDLVSYKLLLRLCANYHLGEHAEILFDEMVETDKLTPTYEIYALMISCFAKVGDGHRAVEFVEKLRSDPLVGEVNNWGEAGGVSGSGSADDRQHPAWRDSFAEEATTEEGAEAEGSTYTNQFKEITKKIKHIERGSSKIQYSEYANVIFACNMSNLPEQGIKYFEELLNTGKYMPSTLLLESIFDLLAKNGNYEKCLDYYNKLKDDPNFKKAINVNILNNILKALSVQGKINIIEDLWKNEFDELMLTPNEISYGYMLKVYSIVDDYEKAFKLFKEMQMKKMLSNKNIIPFVYTINAFKNCGIYNYAIYVLRVAKLLGVSSEDLLKLYNDAMVACVNAKKYDVVISLYAELITMQEKGAPSLEISISTLGFVLLAFRELDMREDFTNLKNLIIQKNYKLTPLCGQLVSEQPH", "soluble on expression in E. coli": "not soluble"}]}]}
